Consider three molecules from US20040146882A1, “Human acid sensing ion channel 2b (hASIC2b), process for producing the same, and its use” (priority 2002, published 2004).

The target in experiment [1] is T1, ASIC1 (Rattus norvegicus, UniProt P55926).
T1 sequence (P55926 1-526): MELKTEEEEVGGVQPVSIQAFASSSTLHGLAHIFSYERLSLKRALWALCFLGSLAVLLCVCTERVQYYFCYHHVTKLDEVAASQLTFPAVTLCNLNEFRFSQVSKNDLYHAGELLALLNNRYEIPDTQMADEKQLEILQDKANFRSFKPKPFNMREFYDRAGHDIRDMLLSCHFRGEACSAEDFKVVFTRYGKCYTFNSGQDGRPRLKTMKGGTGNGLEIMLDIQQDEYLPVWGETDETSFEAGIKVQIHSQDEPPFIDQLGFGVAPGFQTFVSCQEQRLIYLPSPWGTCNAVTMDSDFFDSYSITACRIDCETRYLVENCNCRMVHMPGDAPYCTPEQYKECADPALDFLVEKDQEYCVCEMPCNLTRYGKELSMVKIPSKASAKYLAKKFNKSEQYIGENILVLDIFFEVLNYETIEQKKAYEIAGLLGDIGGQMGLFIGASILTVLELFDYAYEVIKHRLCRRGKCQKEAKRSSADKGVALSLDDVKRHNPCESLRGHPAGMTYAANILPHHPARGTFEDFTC
The note with it: cited from earlier work.

For experiment [2], the target named is T2, ASIC2a (Rattus norvegicus, UniProt Q62962).
T2 sequence (Q62962 1-512): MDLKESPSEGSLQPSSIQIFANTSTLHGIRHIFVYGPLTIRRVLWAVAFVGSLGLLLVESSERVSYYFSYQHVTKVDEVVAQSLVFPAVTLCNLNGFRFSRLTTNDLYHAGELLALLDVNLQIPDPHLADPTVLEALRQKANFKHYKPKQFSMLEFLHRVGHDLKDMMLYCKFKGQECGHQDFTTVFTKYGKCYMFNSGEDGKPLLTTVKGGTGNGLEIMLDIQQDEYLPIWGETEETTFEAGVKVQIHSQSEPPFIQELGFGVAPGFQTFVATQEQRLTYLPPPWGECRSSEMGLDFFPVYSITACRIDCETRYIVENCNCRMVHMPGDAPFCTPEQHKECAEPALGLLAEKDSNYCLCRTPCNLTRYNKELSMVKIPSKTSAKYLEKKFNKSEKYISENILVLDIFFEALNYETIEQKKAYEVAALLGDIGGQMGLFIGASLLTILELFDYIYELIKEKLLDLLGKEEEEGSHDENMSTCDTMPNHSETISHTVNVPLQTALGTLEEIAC
The note with it: cited from earlier work.

The target of experiment [3] is human Acid Sensing Ion Channel 2a (hASIC2a) (human) (UniProt Q16515). The experiment can be described thus: cell-based or functional assay.
The test system of experiment [4] is CHO-K1 cells. The experiment can be described thus: whole-cell patch clamp recording of acid-induced currents in transfected CHO-K1 cells. The format is cell-based, Chinese Hamster. The method, then: The mammalian expression vectors for hASIC2b and hASIC2a were constructed using appropriate expression vectors such as pcDNA3.1 (Clonetech) according to conventional molecular biological methods. Chinese Hamster Ovary (CHO)-K1 cells were seeded on a 35 mm dish in diameter at a density of 20,000 cells, and then transfected with various combinations of ASIC expression vectors with FuGENE6 transfection reagent (Roche) according to the manufacturer's instructions as follows: the hAISC2b expression vector alone (1 μg) for homomeric hASIC2b expression, hASIC2a and green fluorescent protein (GFP) expression vectors (1:2 molar ratio in a total of 1 μg) for hASIC2a expression, and hASIC2b/hASIC2a (1:2 molar ratio in a total of 1 μg) for heteromeric expression. Cells were used for electrophysiological measurements 2 days after the transfection. Successfully transfected cells were recognized by GFP emission signal. Ion currents were recorded using whole-cell patch clamp technique. Recording was made with an Axopatch 200B amplifier (Axon Instruments). Currents were filtered at 5 kHz and digitized by using Digidata 1321A interface. Data were interpolated using Origin6.0 (version 6.0, Microcal). Pipettes were pulled from borosilicate glass and had pipette resistances 1-4MΩ when filled with the intercellular solution. All recordings were made at room temperature (23±2° C.). […]
For orientation: In patch-clamp work, channel activity is measured electrically.

Consider `N=C(N)NC(=O)c1nc(Cl)c(N)nc1N` [amiloride], for which, in experiment [1], the “block of ASIC1” value is reported as “blocked” and the “sensitivity of cation transport by ASIC1a” value is “sensitive”. The “sensitivity of cation transport by ASIC2a” value in experiment [2] was “sensitive”.

As for `CCN(c1nc(N)c(C(=O)NC(=N)N)nc1Cl)C(C)C` [ethylisopropylamiloride], in experiment [1], the “block of ASIC1” value is on record as “blocked”.

B1: human Acid Sensing Ion Channel 2b (hASIC2b) (protein)
chain: MSRIGGAGLPAAALTGPGRFRMAREEPAPAALAAAGQPGGGRGGERALQGPGVARRGRPSLSRAKLHGLRHMCAGRTAAGGSFQRRALWVLAFCTSFGLLLSWSSNRLLYWLSFPSHTRVHREWSRQLPFPAVTVCNNNPLRFPRLSKGDLYYAGHWLGLLLPNRTARPLVSELLRGDEPRRQWFRKLADFRLFLPPRHFEGISAAFMDRLGHQLEDMLLSCKYRGELCGPHNFSSVFTKYGKCYMFNSGEDGKPLLTTVKGGTGNGLEIMLDIQQDEYLPIWGETEETTFEAGVKVQIHSQSEPPFIQELGFGVAPGFQTFVATQEQRLTYLPPPWGECRSSEMGLDFFPVYSITACRIDCETRYIVENCNCRMVHMPGDAPFCTPEQHKECAEPALGLLAEKDSNYCLCRTPCNLTRYNKELSMVKIPSKTSAKYLEKKFNKSEKYISENILVLDIFFEALNYETIEQKKAYEVAALLGDIGGQMGLFIGASILTILELFDYIYELIKEKLLDLLGKEEDEGSHDENVSTCDTMPNHSETISHTVNVPLQTTLGTLEEIAC
For the molecule B1, in experiment [3], the pH50 value for activation (hASIC2a/hASIC2b co-expressing CHO-K1 cells) is 3.43 pH, the peak current density at pH2.0 (hASIC2a/hASIC2b CHO-K1 transformants) was 113 pA/pF, the peak current density at pH3.0 (hASIC2a/hASIC2b CHO-K1 transformants) was found to be 88.9 pA/pF and the peak current density at pH4.0 (hASIC2a/hASIC2b CHO-K1 transformants) was 21 pA/pF. Moreover, the acid-induced inward currents entry in experiment [4] (5 sec application of low pH solution, pH 2.0-4.0, FIG. 5) is “inactive”. Also, the “effect on acid-induced ion currents of hASIC2a” value in experiment [4] (co-expression with hASIC2a) is “inhibitory effect”.
